Like-named read-outs stand apart in the source and are kept apart here.

For orientation: EC50 (read off the curve) means the concentration that produces a half-maximal response. A high value points to a need for much substance. By Kd is commonly meant a measure of binding affinity in units of concentration. Read a low Kd as tighter binding.

The target of test [1] is T1, Vδ1 chain of the γδ TCR on human Vδ1 γδ T cells (human).
T1 construct: whole, on cells; also called cell surface Vδ1 TCR; Vδ1-positive γδ T cells
T1 sequence (A0A1B0GX56 22-115, stated change not applied): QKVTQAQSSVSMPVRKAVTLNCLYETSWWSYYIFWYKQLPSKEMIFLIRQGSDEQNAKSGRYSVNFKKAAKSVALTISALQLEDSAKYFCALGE
The experiment in a line: flow cytometry, anti-human IgG secondary antibody, Vδ1 γδ T-cells. A general note: A flow cytometer gives signals particle by particle.
Description: Initially CD4 and CD8 T-cells were negatively selected by magnetic sorting from PBMC buffy coats extracted from whole blood. […] After washing, cells were incubated for a further 15 minutes with anti-human IgG secondary antibodies before washing and fixing. The amount of antibody bound to each cell type was determined by flow cytometry.

Test [2] addresses T2, Her2 on Her2+ breast cancer cells (SK-BR-3, BT-474) (human, UniProt P04626 23-1255).
T2 construct: whole, on cells; also called ErbB-2; CD340
As to the kind of experiment: flow cytometry on SK-BR-3 cells, anti-human IgG secondary antibody.

A further test addresses T3, Recombinant human MSLN (human, UniProt Q13421 296-580, limits assumed).
T3 construct: also called mesothelin
The experiment in a line: SPR, Reichert 4SPR; antibody captured on Protein A chip, human MSLN flown over.

For test [3], the target named is T1, Vδ1 chain of the γδ TCR on human Vδ1 γδ …. As to the kind of experiment: flow cytometry on Vδ1 γδ T-cells, anti-human IgG secondary antibody.
Description: After washing, cells were incubated for a further 15 minutes with anti-human IgG secondary antibodies before washing and fixing. The amount of antibody bound to each cell type was determined by flow cytometry.
Test [4] has the same target. As to the kind of experiment: flow cytometry, Vδ1 γδ T cells of donor ATS006, mAb titrated up to about 500 nM at 4 C, anti-human IgG detection.
Description: (§1) All incubation steps were performed at 4° C. and mAb binding was determined using flow cytometry to measure the median level of fluorescence. Logarithmic four parameter dose-response curves were fitted using GraphPad Prism 9. […] For Vδ1-positive γδ T cell, data is represented as the mean two donors.
(§2) A range of target cells were assayed to determine the specificity and affinity of Vδ1 mAb binding. This included expanded skin-derived Vδ1 γδ T-cells, HEK293T cells, Raji cells, and multiple leukocyte subsets within human primary blood mononuclear cells. Adherent or semi-adherent cells (skin-derived Vδ1 γδ T-cells, HEK293T) were detached from tissue culture flask and resuspended in PBS. Similarly, non-adherent cell types (Raji, PBMC), were harvested and resuspended in PBS. Cells were seeded at a final density of 100,000 cells per well in v-bottom 96-well plates. Cells underwent centrifugation and the cell pellets were resuspended in FcR blocking reagent according to the manufacturer's instructions, and incubated for 20 minutes at 4C prior to a further wash. […] To determine the quantity of mAb bound to the cell surface, the cells were then stained with a murine anti-human IgG secondary antibody, conjugated to APC (dilution: 1:100). For Vδ1 γδ T-cells, HEK293T and Raji, the cells were also stained solely with a viability dye.
For the next test, the target named is T4, Recombinant human OX40 (human, UniProt P43489 29-216, limits assumed).
T4 construct: also called CD134
T4 sequence (looked up): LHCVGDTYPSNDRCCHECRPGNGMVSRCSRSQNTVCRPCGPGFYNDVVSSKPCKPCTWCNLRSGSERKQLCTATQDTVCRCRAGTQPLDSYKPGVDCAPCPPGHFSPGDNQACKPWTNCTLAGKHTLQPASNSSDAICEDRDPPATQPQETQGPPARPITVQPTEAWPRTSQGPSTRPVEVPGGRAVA
The experiment in a line: SPR, Reichert 4SPR; antibody captured on Protein A chip, human OX40 flown over. A general note: Surface plasmon resonance follows binding to a sensor surface in real time, without labels.

Test [5] addresses T5, L1 (DV1-GV4), soluble human Vδ1/Vγ4 γδ TCR heterodimer in leucine zipper format (human).
T5 construct: Biotinylated in the DELFIA ranking; also called Antigen L1 (TRDV1/TRGV4); human DV1-GV4; not shown: gamma chain: Vγ4 (TRGV4) domain on a TCR constant region, leucine zipper, histidine tag
As to the kind of experiment: SPR (Reichert 4SPR), antibody on Protein A chip, antigen flown over.

Test [6] concerns the target T6, OX40 on activated CD4 T-cells.
T6 construct: also called OX40+ CD4 T-cells
T6 chain: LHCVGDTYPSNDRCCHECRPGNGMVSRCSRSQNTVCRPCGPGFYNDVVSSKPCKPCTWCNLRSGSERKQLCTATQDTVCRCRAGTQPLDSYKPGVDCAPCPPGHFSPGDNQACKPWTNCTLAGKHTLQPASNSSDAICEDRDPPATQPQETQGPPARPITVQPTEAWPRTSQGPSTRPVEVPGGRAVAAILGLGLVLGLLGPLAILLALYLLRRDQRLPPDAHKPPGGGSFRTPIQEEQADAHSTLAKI
The experiment in a line: flow cytometry on anti-CD3/anti-CD28-activated CD4 T-cells, anti-human IgG secondary antibody, % cells bound IgG.
Description: Initially CD4+ T-cells were negatively selected by magnetic sorting from PBMC buffy coats extracted from whole blood. Following activation by anti-CD3/anti-CD28 antibodies conjugated to Dynabeads (Invitrogen), cell surface expression of OX40 was elevated on CD4 T-cells. […] After washing, cells were incubated for a further 15 minutes with anti-human IgG secondary antibodies before washing and fixing. The amount of antibody bound to each cell type was determined by flow cytometry.

Test [7] concerns the target T1, Vδ1 chain of the γδ TCR on human Vδ1 γδ …. As to the kind of experiment: flow cytometry on Vδ1 γδ T-cells, anti-human IgG secondary antibody, % cells bound IgG.
For test [8] the target is unchanged. Described as above. This is another data set of the same source.
Test [9] concerns the target PD-1 on activated CD4 and CD8 T-cells. The experiment in a line: flow cytometry on anti-CD3/anti-CD28-activated CD4 and CD8 T-cells, anti-human IgG secondary antibody, % cells bound IgG.
Test [10] has as its target T1, Vδ1 chain of the γδ TCR on human Vδ1 γδ …. As to the kind of experiment: cell-based or functional assay.
The target of test [11] is T5, L1 (DV1-GV4), soluble human Vδ1/Vγ4 γδ …. As to the kind of experiment: SPR (Reichert 4SPR), antibody on Protein A chip, antigen flown over. This is another data set of the same source.
Description: Recombinant human Vδ1 heterodimer or human PD-1 was flown over the cell at a top concentration of 100 nM.
Test [12] deals with T7, FAPα on FAPα+ fibroblasts (human, UniProt Q12884 1-760).
T7 construct: whole, on cells; also called FAPα+ target cells (BJ fibroblasts, human dermal fibroblasts)
As to the kind of experiment: flow cytometry on BJ fibroblasts, anti-human Fc secondary antibody, % IgG bound cells.
Description: After washing, cells were incubated for a further 15 minutes with anti-human Fc secondary antibodies before washing and fixing. The amount of antibody bound to each cell type was determined by flow cytometry.

The target in test [13] is T5, L1 (DV1-GV4), soluble human Vδ1/Vγ4 γδ …. As to the kind of experiment: SPR (Reichert 4SPR), antibody on Protein A chip, antigen flown over. The source holds these as a separate data set.
Description: Recombinant human Vδ1 heterodimer or human TIGIT was flown over the cell at a top concentration of 100 nM.
Test [14] addresses T1, Vδ1 chain of the γδ TCR on human Vδ1 γδ …. As to the kind of experiment: flow cytometry, Vδ1 γδ T cells of donor TS164, mAb titrated up to about 500 nM at 4 C, anti-human IgG detection.
Description: as §1, §2
Test [15] addresses T5, L1 (DV1-GV4), soluble human Vδ1/Vγ4 γδ …. The experiment in a line: SPR (Reichert 4SPR), antibody on Protein A chip, antigen flown over. This is another data set of the same source.
Description: Recombinant human Vδ1 heterodimer or human FAPα was flown over the cell at a concentration of 100 nM with the following parameters: 180 s association, 480 s dissociation, flowrate 25 μL/min, running buffer PBS+0.05% Tween 20. All experiments were performed at room temperature.
For test [16], the target named is T1, Vδ1 chain of the γδ TCR on human Vδ1 γδ …. The experiment in a line: cell-based or functional assay. This is another data set of the same source.
Test [17] deals with T5, L1 (DV1-GV4), soluble human Vδ1/Vγ4 γδ …. The experiment in a line: SPR (Reichert 4SPR), antibody on Protein A chip, antigen flown over. The source holds these as a separate data set.
Description: (§3) Recombinant human Vδ1 heterodimer or human 4-1BB was flown over the cell at a top concentration of 100 nM.
The target in test [18] is T1, Vδ1 chain of the γδ TCR on human Vδ1 γδ …. As to the kind of experiment: cell-based or functional assay. The source holds these as a separate data set.
The next test has as its target T8, Recombinant human 4-1BB (human, UniProt Q07011 24-186).
T8 construct: also called CD137
The experiment in a line: SPR, Reichert 4SPR; antibody captured on Protein A chip, human 4-1BB flown over.

For test [19], the target named is T9, 4-1BB on activated CD8 T-cells (human, UniProt Q07011).
T9 construct: also called 4-1BB+ CD8 T-cells
T9 sequence (Q07011 24-255 limits assumed): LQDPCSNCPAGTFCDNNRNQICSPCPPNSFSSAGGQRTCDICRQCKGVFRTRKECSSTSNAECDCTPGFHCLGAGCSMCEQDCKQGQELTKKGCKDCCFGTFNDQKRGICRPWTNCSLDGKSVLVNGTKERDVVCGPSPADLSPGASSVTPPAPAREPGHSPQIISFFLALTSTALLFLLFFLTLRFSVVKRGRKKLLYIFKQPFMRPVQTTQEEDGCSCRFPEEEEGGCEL
As to the kind of experiment: flow cytometry on anti-CD3/anti-CD28-activated CD8 T-cells, anti-human IgG secondary antibody, % cells bound IgG.

T5 sequence (main, as listed by the source): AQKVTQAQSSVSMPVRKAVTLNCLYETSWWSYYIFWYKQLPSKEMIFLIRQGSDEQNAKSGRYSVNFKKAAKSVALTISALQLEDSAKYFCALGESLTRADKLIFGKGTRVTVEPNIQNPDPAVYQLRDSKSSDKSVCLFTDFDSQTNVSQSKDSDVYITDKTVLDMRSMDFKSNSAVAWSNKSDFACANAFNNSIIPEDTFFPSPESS
PD-1 on activated CD4 and CD8 T-cells, sequence (chain, as listed by the source limits assumed): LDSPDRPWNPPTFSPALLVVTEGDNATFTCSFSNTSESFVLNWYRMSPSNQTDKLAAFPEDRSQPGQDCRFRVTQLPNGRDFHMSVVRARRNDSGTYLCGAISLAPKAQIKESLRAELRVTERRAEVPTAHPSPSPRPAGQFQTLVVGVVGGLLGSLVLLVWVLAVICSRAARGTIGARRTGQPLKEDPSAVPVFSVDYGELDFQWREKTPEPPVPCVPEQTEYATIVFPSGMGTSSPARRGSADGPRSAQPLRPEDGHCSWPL
T3 sequence (Q13421 other isoform, or with tags, fused parts or gaps limits assumed): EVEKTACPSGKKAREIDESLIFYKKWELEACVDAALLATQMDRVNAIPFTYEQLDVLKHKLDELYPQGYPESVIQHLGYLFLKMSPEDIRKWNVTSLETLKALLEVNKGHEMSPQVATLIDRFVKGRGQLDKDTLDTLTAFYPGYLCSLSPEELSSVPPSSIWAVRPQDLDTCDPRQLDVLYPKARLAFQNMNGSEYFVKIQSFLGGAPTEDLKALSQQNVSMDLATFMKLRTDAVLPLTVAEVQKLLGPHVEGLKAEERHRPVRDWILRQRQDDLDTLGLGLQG
T8 sequence (Q07011 24-186 limits assumed): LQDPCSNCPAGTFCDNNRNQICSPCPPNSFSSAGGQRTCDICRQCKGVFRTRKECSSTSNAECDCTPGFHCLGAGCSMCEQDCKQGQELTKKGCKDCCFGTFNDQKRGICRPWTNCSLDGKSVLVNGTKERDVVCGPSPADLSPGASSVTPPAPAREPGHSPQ
Description for Recombinant human 4-1BB: as §3
Description for Recombinant human MSLN: Recombinant human Vδ1 heterodimer or human MSLN was flown over the cell at a top concentration of 100 nM with the following parameters: 180 s association, 480 s dissociation, flowrate 25 μL/min, running buffer PBS+0.05% Tween 20. All experiments were performed at room temperature.
Description for Recombinant human OX40: Recombinant human Vδ1 heterodimer or human OX40 was flown over the cell at a top concentration of 100 nM.

B1: ADT1-4-2 (antibody, IgG1, V domains shown)
VH: EVQLQQSGPGLVKPSQTLSLTCAISGDSVSSKSAAWNWIRQSPSRGLEWLGRTYYRSKWSTDYAASVKSRITINPDTSKNQLSLQLNSVTPEDTAVYYCARTWVGYVDRWGQGTLVTVSS
VL: DIQMTQSPPALSASVGDRVTITCRASQDINDWLAWYQHKPGKAPKLLIYDASSLESGVPLRFSGSGSGTEFTLTISSLQPDDFATYYCQQKYSAPQVTFGQGTRLEIK
notes: IgG1
For B1, the “EC50 (read off the curve)” value was approximately 0.2 nM in [1]; approximately 5 nM in test [3]; approximately 2 nM in [4]; approximately 0.2 nM in test [7]; approximately 0.2 nM in test [8]; approximately 2 nM in test [14]. The binding result in [2] is reported as “no binding (tested: about 300 nM)”; with Recombinant human MSLN, “no binding”; with Recombinant human OX40, “no binding”; in test [6], “no binding (tested: 200 nM)”; in [9], “no binding (tested: 200 nM)”; in test [12], “no binding (tested: about 70 nM)”. The binding result with Recombinant human 4-1BB is recorded as “no binding”; in test [19] it was “no binding (tested: 200 nM)”. Moreover, the dissociation constant Kd in test [5] is 1.25 nM; in test [11], 0.29 nM; in [13], 0.29 nM; in [15] it was 0.14 nM; in test [17] it was 1.25 nM. Also, the “IC50 (read off the curve), Vδ1 TCR downregulation, γδ T-cells alone” value in test [10] was approximately 0.1 nM. The “IC50 (read off the curve), Vδ1 TCR downregulation, γδ T-cells with activated OX40+ CD4 T-cells” value in test [16] is approximately 0.1 nM. In test [18], the “IC50 (read off the curve), Vδ1 TCR downregulation, γδ T-cells with FAPα+ fibroblasts” value is approximately 2 nM.

For the origin of these results see US20230028110A1 (ADAPTATE BIOTHERAPEUTICS, published 2023).
